# Measurements reported in patent US20250243277A1 (AVACTA LIFE SCIENCES, published 2025).
# Molecular target: T1, human PD-L1-Fc (R&D Systems) (human, UniProt Q9NZQ7 19-239)
# T1 construct: Bought from R&D Systems; Biotinylated in-house for the phage selection; also called huPD-L1-Fc; human PD-L1-Fc antigen; not shown: Fc part of the bought fusion
# Assay: soluble Affimer ELISA
# T1 sequence (Q9NZQ7 19-239 limits assumed): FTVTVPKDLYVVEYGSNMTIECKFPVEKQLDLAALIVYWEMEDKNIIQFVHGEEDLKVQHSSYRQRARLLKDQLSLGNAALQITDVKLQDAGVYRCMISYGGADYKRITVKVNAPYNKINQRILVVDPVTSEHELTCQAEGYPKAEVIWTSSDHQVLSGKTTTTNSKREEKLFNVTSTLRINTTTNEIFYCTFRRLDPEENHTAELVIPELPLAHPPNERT
row,binding result,Binder
1,binds,"Clone 105 (designed binder, His-tagged) MIPGGLSEAKPATPEIQEIVDKVKPQLEEKTGETYGKLEAVQYKTQVDETSENVIQWGTNYYIKVRAGDNKYMHLKVFKSLWPADILTQHEDLVLTGYQVDKNKDDELTGF"
2,binds,"Clone 1 (designed binder, His-tagged) MIPGGLSEAKPATPEIQEIVDKVKPQLEEKTGETYGKLEAVQYKTQVVVYHVRWNYLGTNYYIKVRAGDNKYMHLKVFKSLSLEEPPVETEDLVLTGYQVDKNKDDELTGF"
3,binds,"Clone 11 (designed binder, His-tagged) MIPGGLSEAKPATPEIQEIVDKVKPQLEEKTGETYGKLEAVQYKTQVVEVQQQENFQGTNYYIKVRAGDNKYMHLKVFKSLHIYEHIVYREDLVLTGYQVDKNKDDELTGF"
4,binds,"Clone 114 (designed binder, His-tagged) MIPGGLSEAKPATPEIQEIVDKVKPQLEEKTGETYGKLEAVQYKTQVDQSSDLAKLWGTNYYIKVRAGDNKYMHLKVFKSLWNLNSDKSSEDLVLTGYQVDKNKDDELTGF"
5,binds,"Clone 149 (designed binder, His-tagged) MIPGGLSEAKPATPEIQEIVDKVKPQLEEKTGETYGKLEAVQYKTQVVKTLGVWHWSGTNYYIKVRAGDNKYMHLKVFKSLFEQHAENIEEDLVLTGYQVDKNKDDELTGF"
6,binds,"Clone 86 (designed binder, His-tagged) MIPGGLSEAKPATPEIQEIVDKVKPQLEEKTGETYGKLEAVQYKTQVVDVRGQWAWTGTNYYIKVRAGDNKYMHLKVFKSLFQPRTKATEEDLVLTGYQVDKNKDDELTGF"
7,binds,"Clone 84 (designed binder, His-tagged) MIPGGLSEAKPATPEIQEIVDKVKPQLEEKTGETYGKLEAVQYKTQVVLIRHLWSWSGTNYYIKVRAGDNKYMHLKVFKSLFEGENHQIDEDLVLTGYQVDKNKDDELTGF"
8,binds,"Clone 194 (designed binder, His-tagged) MIPGGLSEAKPATPEIQEIVDKVKPQLEEKTGETYGKLEAVQYKTQVVEERRIWNWTGTNYYIKVRAGDNKYMHLKVFKSLFTASDTHPAEDLVLTGYQVDKNKDDELTGF"
9,binds,"Clone 77 (designed binder, His-tagged) MIPGGLSEAKPATPEIQEIVDKVKPQLEEKTGETYGKLEAVQYKTQVVWDRPRWGWTGTNYYIKVRAGDNKYMHLKVFKSLFKESSRNDEEDLVLTGYQVDKNKDDELTGF"
10,binds,"Clone 122 (designed binder, His-tagged) MIPGGLSEAKPATPEIQEIVDKVKPQLEEKTGETYGKLEAVQYKTQVDVIHIPHQWHGTNYYIKVRAGDNKYMHLKVFKSLIFHEPKPPREDLVLTGYQVDKNKDDELTGF"
11,binds,"Clone 108 (designed binder, His-tagged) MIPGGLSEAKPATPEIQEIVDKVKPQLEEKTGETYGKLEAVQYKTQVDREHASVKFWGTNYYIKVRAGDNKYMHLKVFKSLWLEATPHTQEDLVLTGYQVDKNKDDELTGF"

# Second part, the binder before the results:
row,Binder,binding result
1,"Clone 103 (designed binder, His-tagged) MIPGGLSEAKPATPEIQEIVDKVKPQLEEKTGETYGKLEAVQYKTQVDFSFPLVHWYGTNYYIKVRAGDNKYMHLKVFKSLRFRDGGHHVEDLVLTGYQVDKNKDDELTGF",binds
2,"Clone 110 (designed binder, His-tagged) MIPGGLSEAKPATPEIQEIVDKVKPQLEEKTGETYGKLEAVQYKTQVDHTQPKALDWGTNYYIKVRAGDNKYMHLKVFKSLWGSILTDGPEDLVLTGYQVDKNKDDELTGF",binds
3,"Clone 196 (designed binder, His-tagged) MIPGGLSEAKPATPEIQEIVDKVKPQLEEKTGETYGKLEAVQYKTQVVLLWTPPYVDGTNYYIKVRAGDNKYMHLKVFKSLGWNDDHSVGEDLVLTGYQVDKNKDDELTGF",binds
4,"Clone 112 (designed binder, His-tagged) MIPGGLSEAKPATPEIQEIVDKVKPQLEEKTGETYGKLEAVQYKTQVDRFYHQWHFLGTNYYIKVRAGDNKYMHLKVFKSLDLRAPRNDNEDLVLTGYQVDKNKDDELTGF",binds
5,"Clone 115 (designed binder, His-tagged) MIPGGLSEAKPATPEIQEIVDKVKPQLEEKTGETYGKLEAVQYKTQVDRFYHQWHFLGTNYYIKVRAGDNKYMHLKVFKSLDLRAPRNDNEDLVLTGYQVDKNKDDELTGF",binds
6,"Clone 107 (designed binder, His-tagged) MIPGGLSEAKPATPEIQEIVDKVKPQLEEKTGETYGKLEAVQYKTQVDFTDIHWSTWGTNYYIKVRAGDNKYMHLKVFKSLIPAWQQIHVEDLVLTGYQVDKNKDDELTGF",binds
7,"Clone 117 (designed binder, His-tagged) MIPGGLSEAKPATPEIQEIVDKVKPQLEEKTGETYGKLEAVQYKTQVDHEVRKTYEFGTNYYIKVRAGDNKYMHLKVFKSLWFGGWPLAQEDLVLTGYQVDKNKDDELTGF",binds
8,"Clone 109 (designed binder, His-tagged) MIPGGLSEAKPATPEIQEIVDKVKPQLEEKTGETYGKLEAVQYKTQVDISGVGLVPNGTNYYIKVRAGDNKYMHLKVFKSLNWNYPQQPFEDLVLTGYQVDKNKDDELTGF",binds
9,"Clone 102 (designed binder, His-tagged) MIPGGLSEAKPATPEIQEIVDKVKPQLEEKTGETYGKLEAVQYKTQVDRKAAVVARHGTNYYIKVRAGDNKYMHLKVFKSLWPFLVIEKYEDLVLTGYQVDKNKDDELTGF",binds
10,"Clone 119 (designed binder, His-tagged) MIPGGLSEAKPATPEIQEIVDKVKPQLEEKTGETYGKLEAVQYKTQVDSWVFKPFYHGTNYYIKVRAGDNKYMHLKVFKSLSGPEFFSRHEDLVLTGYQVDKNKDDELTGF",binds
11,"Clone 101 (designed binder, His-tagged) MIPGGLSEAKPATPEIQEIVDKVKPQLEEKTGETYGKLEAVQYKTQVDHHHRFAKWWGTNYYIKVRAGDNKYMHLKVFKSLWFNENREDTEDLVLTGYQVDKNKDDELTGF",binds
12,"Clone 10 (designed binder, His-tagged) MIPGGLSEAKPATPEIQEIVDKVKPQLEEKTGETYGKLEAVQYKTQVVDDVKNGFVQGTNYYIKVRAGDNKYMHLKVFKSLIDRHVYWLEEDLVLTGYQVDKNKDDELTGF",binds
13,"Clone 40 (designed binder, His-tagged) MIPGGLSEAKPATPEIQEIVDKVKPQLEEKTGETYGKLEAVQYKTQVVKRRHFPQWQGTNYYIKVRAGDNKYMHLKVFKSLGDHLNQYPNEDLVLTGYQVDKNKDDELTGF",binds
14,"Clone 246 (designed binder, His-tagged) MIPGGLSEAKPATPEIQEIVDKVKPQLEEKTGETYGKLEAVQYKTQVVERFHFPQFPGTNYYIKVRAGDNKYMHLKVFKSLPHLDYIWNWEDLVLTGYQVDKNKDDELTGF",binds
15,"Clone 247 (designed binder, His-tagged) MIPGGLSEAKPATPEIQEIVDKVKPQLEEKTGETYGKLEAVQYKTQVVRREHFPRWPGTNYYIKVRAGDNKYMHLKVFKSLDLLLRKEEVEDLVLTGYQVDKNKDDELTGF",binds
16,"Clone 48 (designed binder, His-tagged) MIPGGLSEAKPATPEIQEIVDKVKPQLEEKTGETYGKLEAVQYKTQVVTRKHFPQYWGTNYYIKVRAGDNKYMHLKVFKSLNEPLPVTNIEDLVLTGYQVDKNKDDELTGF",binds
17,"Clone 175 (designed binder, His-tagged) MIPGGLSEAKPATPEIQEIVDKVKPQLEEKTGETYGKLEAVQYKTQVVWRRWFPQWPGTNYYIKVRAGDNKYMHLKVFKSLPEADADDPKEDLVLTGYQVDKNKDDELTGF",binds
18,"Clone 184 (designed binder, His-tagged) MIPGGLSEAKPATPEIQEIVDKVKPQLEEKTGETYGKLEAVQYKTQVVHRKHFHQFTGTNYYIKVRAGDNKYMHLKVFKSLSNDYYETYLEDLVLTGYQVDKNKDDELTGF",binds
19,"Clone 113 (designed binder, His-tagged) MIPGGLSEAKPATPEIQEIVDKVKPQLEEKTGETYGKLEAVQYKTQVDWVTRHHTLVGTNYYIKVRAGDNKYMHLKVFKSLPPFKHWHLEDLVLTGYQVDKNKDDELTGF",binds
20,"Clone 116 (designed binder, His-tagged) MIPGGLSEAKPATPEIQEIVDKVKPQLEEKTGETYGKLEAVQYKTQVDWVTRHHTLVGTNYYIKVRAGDNKYMHLKVFKSLPPFKHWHLEDLVLTGYQVDKNKDDELTGF",binds
21,"Clone 95 (designed binder, His-tagged) MIPGGLSEAKPATPEIQEIVDKVKPQLEEKTGETYGKLEAVQYKTQVDTIHPQAKYWGTNYYIKVRAGDNKYMHLKVFKSLWKNLLKPIHEDLVLTGYQVDKNKDDELTGF",binds
22,"Clone 104 (designed binder, His-tagged) MIPGGLSEAKPATPEIQEIVDKVKPQLEEKTGETYGKLEAVQYKTQVDNAHPLVKNWGTNYYIKVRAGDNKYMHLKVFKSLWRNDTSSIYEDLVLTGYQVDKNKDDELTGF",binds
23,"Clone 56 (designed binder, His-tagged) MIPGGLSEAKPATPEIQEIVDKVKPQLEEKTGETYGKLEAVQYKTQVVGGRHRWNWSGTNYYIKVRAGDNKYMHLKVFKSLFEPSGLAAEEDLVLTGYQVDKNKDDELTGF",binds
24,"Clone 118 (designed binder, His-tagged) MIPGGLSEAKPATPEIQEIVDKVKPQLEEKTGETYGKLEAVQYKTQVDVISIPLVWNGTNYYIKVRAGDNKYMHLKVFKSLIFQEYYPHREDLVLTGYQVDKNKDDELTGF",binds
